Measured values taken from publication PMC9606830, “GhBEE3-Like gene regulated by brassinosteroids is involved in cotton drought tolerance”.

T1: GhBZR1-His (Gossypium hirsutum, UniProt A0A1B0QVW2 1-313)
T1 sequence: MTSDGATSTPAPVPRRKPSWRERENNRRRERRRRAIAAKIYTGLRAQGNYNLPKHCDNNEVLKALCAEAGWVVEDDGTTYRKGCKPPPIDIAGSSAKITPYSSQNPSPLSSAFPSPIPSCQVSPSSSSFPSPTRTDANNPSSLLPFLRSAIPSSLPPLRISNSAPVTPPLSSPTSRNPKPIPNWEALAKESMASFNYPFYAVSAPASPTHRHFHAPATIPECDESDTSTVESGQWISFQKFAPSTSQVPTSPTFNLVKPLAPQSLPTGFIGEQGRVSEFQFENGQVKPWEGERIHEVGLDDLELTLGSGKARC

B1: GhBEE3-Like Probe (dsDNA)
DNA 1: ACAATTACACGTGACATGTC
DNA 2: GACATGTCACGTGTAATTGT
B2: Mutant Probe (dsDNA)
DNA 1: ACAATTAAGCGGAACATGTC
DNA 2: GACATGTTCCGCTTAATTGT
B3: Competitor Probe (dsDNA)
DNA 1: ACAATTACACGTGACATGTC
DNA 2: GACATGTCACGTGTAATTGT

Assays:
GhBZR1-His [1] = biological target: T1, GhBZR1-His; assay: EMSA; LightShift Chemiluminescent EMSA Kit (Thermo); buffer, salt, pH and temperature not stated; details: protein: recombinant; tags: C-terminal His (pET30a); chain copies: 2; label: biotin on both strands (text: 3'-end and 5'-end); blunt
GhBZR1-His [2] = biological target: T1, GhBZR1-His; assay: competition; unlabelled competitor against biotinylated GhBEE3-Like Probe; significantly reduced the shift; LightShift Chemiluminescent EMSA Kit (Thermo); buffer, salt, pH and temperature not stated; details: protein: recombinant; tags: C-terminal His (pET30a); chain copies: 2; label: none; blunt

Binder | binding result (GhBZR1-His [1]) | binding result (GhBZR1-His [2])
B1 | binds | –
B2 | no binding | –
B3 | – | binds
